From patent US20220402990

How the values were obtained:
[1] = target: Activatable cytokine construct IFN-α2b-1204DNIdl-hIgG4
[2] = target: IFN-α2b-1204DNIdl-hIgG4 with five amino acid residues added to the linker
[3] = target: Activatable cytokine construct IFN-α-2b 1490DNI-hIgG4

B1: recombinant human matriptase (MT-SP1) (protein)
chain: VVGGTDADEGEWPWQVSLHALGQGHICGASLISPNWLVSAAHCYIDDRGFRYSDPTQWTAFLGLHDQSQRSAPGVQERRLKRIISHPFFNDFTFDYDIALLELEKPAEYSSMVRPICLPDASHVFPAGKAIWVTGWGHTQYGGTGALILQKGEIRVINQTTCENLLPQQITPRMMCVGFLSGGVDSCQGDSGGPLSSVEADGRIFQAGVVSWGDGCAQRNKPGVYTRLPLFRDWIKENTGV
protease cleavage, gel electrophoresis [1]: The results suggest that the proteases were effective at cleaving the cleavable moieties in the activatable cytokine constructs
protease cleavage, gel electrophoresis [2]: The results suggest that the proteases were effective at cleaving the cleavable moieties in the activatable cytokine constructs
protease cleavage, gel electrophoresis [3]: The results suggest that the proteases were effective at cleaving the cleavable moieties in the activatable cytokine constructs
